# In publication PMC9452303:
# Legend:
# [1] = molecular target: CsuA/B (wild type, co-expressed with the CsuC chaperone) (Acinetobacter baumannii); assay: pull-down
# [2] = molecular target: CsuA/B Arg104Cys (in Csu pili) (Acinetobacter baumannii); assay: optical tweezers force spectroscopy; single pili on E. coli cells mounted on a bead, polystyrene probe bead; extension at a constant speed of 50 nm/s; force of region II (clinch opening)
# [3] = molecular target: CsuA/B Val2Ala (in Csu pili) (Acinetobacter baumannii); assay: as above
# [4] = molecular target: FimD NTD (Escherichia coli) (UniProt P30130); conditions: cited from earlier work
# FimD (Escherichia coli) = FimD (Escherichia coli) (UniProt P30130); conditions: cited from earlier work
# [5] = molecular target: CsuA/B, major subunit of the Csu pilus rod (wild type, in Csu pili) (Acinetobacter baumannii); assay: optical tweezers force spectroscopy; single pili on E. coli cells mounted on a bead, polystyrene probe bead; extension at a constant speed of 50 nm/s; force of region II (clinch opening)
substance,measurement,setting,value
"CsuA/B (wild type, co-expressed with the CsuC chaperone) (natural protein)",stoichiometry N,[1],1 to 8
CsuA/B Arg104Cys (in Csu pili) (natural protein),clinch opening force,[2],19.8 pN
CsuA/B Val2Ala (in Csu pili) (natural protein),clinch opening force,[3],15 pN
FimC-FimH complex (from UniProt P31697),Kd,[4],0.96 µM
same,Kd,FimD (Escherichia coli),0.0125 µM
"CsuA/B, major subunit of the Csu pilus rod (wild type, in Csu pili) (natural protein)",clinch opening force,[5],23 pN
